Assay results taken from paper PMC5556061 (Scientific Reports, 2017).
Residue numbers refer to the chain shown, from its start.

Assays:
CAS SH3 Y12E = assay: Phage ELISA with CAS SH3 variants; assay type: binding, mouse; conditions: immobilized 5 µg of CAS SH3 variant per well, three independent experiments
Experimental: The relative binding affinities of individual phage clones to GST-CAS SH3 were assessed by ELISA according to the manufacturer’s protocol (Ph.D.™ −12 Phage Display Peptide Library Kit, New England Biolabs). Briefly, a dilution series of phage stocks was prepared in TBS with 0.5% Tween 20 (TBST, 10^15−2 × 10^6 pfu/ml), and phages were scored for their ability to bind immobilized GST-CAS SH3 domain (100 µl of 50 µg/ml per well) in 96-well plate. Bound phages were detected with anti-M13 antibody conjugated to HRP and quantified in a colorimetric assay (ABTS at 415 nm, Invitrogen) using Varioskan Flash (Thermo Scientific). Relative binding affinities (the affinity of the phage clone with the highest affinity was arbitrarily set to 1) were evaluated based on the number of phages required to bind the immobilized GST-fused CAS SH3 domain at 50% saturation. Curves were fitted with the standard sigmoidal function in Sigmaplot. The clones with highest affinities were selected for further analyses (e.g., binding to immobilized 5 µg of CAS SH3 variants per well).

GST-fused CAS SH3 domain = assay: Competitive displacement phage ELISA (EC50); assay type: binding, mouse
Experimental: The EC50 for phage clone 1 ([…], highest affinity) was determined using competitive displacement of the phage bound (5.5·10^10 pfu) to immobilized GST-fused CAS SH3 domain (100 µl of 20 µg/ml per well to yield the best specificity/sensitivity ratio) by serial additions of free GST-fused CAS SH3 domain in TBST (1 µg/ml–800 µg/ml) as previously described. The amount of bound phages was assessed with anti-M13 antibody conjugated to HRP and quantified in a colorimetric assay. Displacement curves were fitted to standard sigmoidal function and EC50 was calculated in Sigmaplot version 11 software using a four-parameter logistic equation. Statistical significance (*p < 0.05, **p < 0.01, ***p < 0.001) was determined on log-transformed data by one-way ANOVA followed by Tukey’s post-hoc test.

Src kinase = assay: Co-immunoprecipitation of FAK and Vinculin with CAS after Src inhibition; assay type: cell-based, mouse; conditions: MEFs SrcF treated with 5 µM Saracatinib for 3 h, Vinculin immunoblot
Experimental: Immunoprecipitations from lysates of MEFs or MEFs transformed with SrcF were performed similarly as described above. To immunoprecipitate CAS proteins, protein-A sepharose (GE-Healthcare) and anti-CAS antibody (BD Transduction Laboratories) were used. […] After transferring proteins onto nitrocellulose membrane and blocking, the membranes were incubated with anti CAS, Src, FAK, Vinculin, CAS Tyr12, CAS pTyr165, Src pTyr418 or actin antibody.

[1] = molecular target: T1, phage-displayed peptide clone 1 (FHAPPSKPPLPK); assay: ELISA; competitive displacement of phage clone 1 (5.5·10^10 pfu) bound to immobilised GST-CAS SH3 (100 µl of 20 µg/ml per well) by free GST-CAS SH3 in TBST (1-800 µg/ml); anti-M13-HRP; conditions: one partner purified
T1 construct: 12-residue peptide selected from a degenerate library; also called phage clone 1; source: M13 phage stock (Ph.D.-12 Phage Display Peptide Library, New England Biolabs), selected by panning
T1 peptide: FHAPPSKPPLPK

[2] = molecular target: T2, CAS SH3 domain (GST tag removed, for NMR) (mouse, UniProt Q61140 3-65); assay: NMR solution structure; chimeras: peptide fused through a Gly/Ser-rich linker to the C-terminus of the CAS SH3 domain; 450 µM; 25 °C; 25 mM sodium phosphate pH 7.5, 100 mM NaCl, 1 mM TCEP; conditions: both partners purified
T2 construct: Crk-associated substrate (CAS), mouse, SH3 domain; Two additional residues remained at the N-terminus after thrombin cleavage; In the two chimeras this domain carried, on the same chain, the spacer SGGSGSG and the peptide m17 or m18 at its C-terminus; also called free CAS SH3 domain; source: E. coli BL21 (DE3), 15N/13C-labelled, purified (glutathione agarose, thrombin cleavage, size exclusion); …
T2 sequence (looked up): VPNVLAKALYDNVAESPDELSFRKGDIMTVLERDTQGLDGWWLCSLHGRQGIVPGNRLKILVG

[3] = molecular target: T3, GST-fused CAS SH3 domain Y12F (mouse, UniProt Q61140 3-65, Y12F); assay: ELISA; phage ELISA: GST-CAS SH3 domain or its variants immobilised in 96-well plate (100 µl of 50 µg/ml; 5 µg per well), dilution series of phage stocks in TBS with 0.5% Tween 20, anti-M13-HRP; relative affinities from phage number at 50% saturation; conditions: one partner purified
T3 construct: Crk-associated substrate (CAS), mouse, SH3 domain with Y12F; also called CAS SH3 Y12F mutant; source: E. coli BL21 (DE3), pGEX-2TK, purified (glutathione agarose); not shown: GST, N-terminal, kept
T3 sequence (looked up): T2 sequence (looked up) with Y10F

[4] = molecular target: T4, CAS SH3 (as used for ITC) (mouse, UniProt Q61140 3-65); assay: ITC; 660 µM peptide injected into 60 µM CAS SH3; 25 °C; PBS pH 7.5, 0.05% 2-mercaptoethanol; conditions: both partners purified
T4 construct: Crk-associated substrate (CAS), mouse, SH3 domain; probably the same protein as m2; source: E. coli BL21 (DE3), purified
T4 sequence (looked up): T2 sequence (looked up)

## TMTPPPKPPRLI [clone 10]
CAS SH3 Y12E
  effect of Y12E mutation on ligand binding: complete disruption of ligand binding

## FHAPPSKPPLPK [clone 1]
GST-fused CAS SH3 domain; EC50 of clone 1 compared with previously reported value
  fold higher affinity than reported for CAS SH3 with FAK-derived peptide: ~6 fold
GST-fused CAS SH3 domain; displacement of bound phage (5.5·10^10 pfu) from immobilized GST-CAS SH3 (100 µl of 20 µg/ml per well) by free GST-fused CAS SH3 (1-800 µg/ml) in TBST, anti-M13-HRP, colorimetric, seven independent experiments, read-out: EC50 for clone 1 binding
  EC50: 0.363 µM

## AHTPPPKPTRPP [clone 16]
CAS SH3 Y12E
  effect of Y12E mutation on ligand binding: complete disruption of ligand binding

## CN1CCN(CCOc2cc(OC3CCOCC3)c3c(Nc4c(Cl)ccc5c4OCO5)ncnc3c2)CC1 [Saracatinib]
Src kinase
  binding of CAS to Vinculin: restored the binding of CAS to Vinculin to a similar level as in MEFs

B1: GST-fused CAS SH3 domain (domain or fragment, mouse, UniProt Q61140 3-65, looked up)
chain: T2 sequence (looked up)
notes: Crk-associated substrate (CAS), mouse, SH3 domain; also called GST-CAS SH3; GST-SH3; source: E. coli BL21 (DE3), pGEX-2TK, purified (glutathione agarose); not shown: GST, N-terminal, kept
[1]
  EC50: 0.363 µM

B2: PTP-PEST-derived peptide, residues 327-343 (peptide part of the CAS-PTP-PEST chimera) (peptide, UniProt P35831 327-343, looked up)
peptide: EKQDSPPPKPPRTRSCL
notes: PTP-PEST, mouse, residues 327-343; Stood on one chain with the CAS SH3 domain: SH3 domain, spacer SGGSGSG, peptide; also called PTP-PEST peptide; PTP-PEST extended peptide; source: E. coli BL21 (DE3), as the C-terminal part of the CAS SH3 chimera, purified
[2]
  binding result: binds

B3: phage-displayed peptide clone 16 (AHTPPPKPTRPP) (peptide)
peptide: AHTPPPKPTRPP
notes: 12-residue peptide selected from a degenerate library; also called phage clone 16; source: M13 phage stock (Ph.D.-12 Phage Display Peptide Library, New England Biolabs), selected by panning
[3]
  fold decrease in affinity against CAS WT: 37 fold

B4: Vinculin-derived peptide, residues 854-870 (peptide part of the CAS-Vinculin chimera) (peptide, UniProt Q64727 854-870, looked up)
peptide: LTDELAPPKPPLPEGEV
notes: Vinculin, mouse, residues 854-870; Stood on one chain with the CAS SH3 domain: SH3 domain, spacer SGGSGSG, peptide; also called Vinculin peptide; Vinculin extended peptide; source: E. coli BL21 (DE3), as the C-terminal part of the CAS SH3 chimera, purified
[2]
  binding result: binds

B5: synthetic octapeptide APPKPPLP (binding site of CAS on Vinculin) (peptide)
peptide: APPKPPLP
notes: also called Vinculin core peptide (859-866); source: synthetic peptide
[4]
  Kd: 15.7 µM
  stoichiometry N: 1

## PPSKPPRP (source: synthetic peptide) [synthetic octapeptide PPSKPPRP]
[4]
  Kd: 15.3 µM
  stoichiometry N: 1

## PPSKPPLP (source: synthetic peptide) [synthetic octapeptide PPSKPPLP]
[4]
  Kd: 46.6 µM
  stoichiometry N: 1

## PPPKPPRL (source: synthetic peptide) [synthetic octapeptide PPPKPPRL]
[4]
  Kd: 5.29 µM
  stoichiometry N: 1

B6: phage-displayed peptide clone 10 (TMTPPPKPPRLI) (peptide)
peptide: TMTPPPKPPRLI
notes: 12-residue peptide selected from a degenerate library; also called phage clone 10; source: M13 phage stock (Ph.D.-12 Phage Display Peptide Library, New England Biolabs), selected by panning
[3]
  fold decrease in affinity against CAS WT: 2 fold
